{"source": "the nanobody polyreactivity screen of Harvey et al. (2022)"}
{"experiment": "yeast display, Sf9 membrane polyspecificity reagent, FACS + sequencing; frameworks hold sequencing errors", "how_it_was_run": "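After 36–48 hours of galactose induction, yeast (Saccharomyces cerevisiae BJ5465) displaying a synthetic nanobody library were stained at 4 °C for 1 hour with 10% biotinylated, detergent-solubilized Sf9 membrane reagent. Streptavidin microbeads enriched the stained cells before FACS sorting into low and high (top ~1%) gates on anti-HA and streptavidin fluorescence. Each clone's polyreactivity label reflects its gate of origin.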"}
{"sequence": "QVQLVESGGGLVQAGGSLRLSCAASGINYSRYAMGWYRQAPGKERELVAAISSGGSTNYADSVKGRFTISRDNAKNTVYLQMNSLKPEDTAVYYCAAETRLHRQDYDYWGQGTQVTVSS", "polyreactivity (PSR sort gate)": "low polyreactivity"}
{"sequence": "QVQLVESGGGLVQAGGSLRLSCAASGISDWYAMGWSRQAPGKERELVASITDGGSTKYADSVKGRFTISRDNAKNTVYLQMNSLKPEDTAVYYCNNTFRVYFSRSWWSRYYYWGQGTQVTVSS", "polyreactivity (PSR sort gate)": "low polyreactivity"}
{"sequence": "QVQLVESGGGLVQAGGSLRLSCAASGISDWYAMGWYRQAPGKERELVASITDGGSTKYADSVKGRFTISRDNAKNTVYLQMNSLKPEDTAVYYCNTTFRVYFSRSWWSRYYYWGLGTQVTVSS", "polyreactivity (PSR sort gate)": "low polyreactivity"}
{"sequence": "QVQLVESGGGLVQAGGSLRLSCAASGISFSYYAMGWYRQAPGKERELVAAITSSGGSTYYADSVKGRFTISRDNEKNTVYLQMTSLKPEDTAVYYCNAKRAPWGTLYNYWGLGTQVTVSS", "polyreactivity (PSR sort gate)": "high polyreactivity"}
{"sequence": "QVQLVESGGGLVQAGGSLRLSCAASGISFYRYAMGWYRQAPGKERELVAAITGSGDSTYYADSVKGRFSISRDNAKNTVYLQMNSLKPEDTAVYYCNTDYGRRYDYWGQGTQVTVSS", "polyreactivity (PSR sort gate)": "high polyreactivity"}
{"sequence": "QVQLVESGGGLVQAGGSLRLSCAASGITFAEYAMGWYRQAPGKERELVAAINGGGGSTYYADSVKGRFTISRDNAKNTVYLQMNSLKPEDTAVYYCAARYRGWSGGYDYWGQGTQVTVSS", "polyreactivity (PSR sort gate)": "high polyreactivity"}
{"sequence": "QVQLVESGGGLVQAGGSLRLSCAASGITFAFYAMGWYRQAPGKERELVAAISWSGTRTYYADSVKGRFTISRDNAKNTVYLQMNSLKPEDTAVYYCAADFQAGDKLYDYWGQGTQVTVSS", "polyreactivity (PSR sort gate)": "low polyreactivity"}
{"sequence": "QVQLVESGGGLVQAGGSLRLSCAASGITFAFYAMGWYRQAPGKERELVAAISWSGTRTYYADSVKGRFTISRDNAKNTVYLQMNSLKPEDTAVYYCAADYQAGYKMFDYWGQGTQVTVSS", "polyreactivity (PSR sort gate)": "low polyreactivity"}
{"sequence": "QVQLVESGGGLVQAGGSLRLSCAASGITFAPYAMGWYRQAPGKERELVATITWSGGSTYYADSVKGRFTISRDNAKNTVYLQMNSLKPEDTAVYYCAAYNDTVPSAAHIYESWGQGTQVTVSS", "polyreactivity (PSR sort gate)": "low polyreactivity"}
{"sequence": "QVQLVESGGGLVQAGGSLRLSCAASGITFARYAMGWYRQAPGKARELVAAISRSGGSTYYADSVKGRFTSSRDNAKNTVYLQMNSLKPEDSAVYYCAAGGRVRRNKFDDWGQGTQVTVAS", "polyreactivity (PSR sort gate)": "high polyreactivity"}
{"sequence": "QVQLVESGGGLVQAGGSLRLSCAASGITFARYAMGWYRQAPGKETELVAALSKRGGRTYYADSVKGRFTISRDNAKNTVYLQMNSLKPEDTAVYYCATDYYVSTDYNYWGQGTQVTVSS", "polyreactivity (PSR sort gate)": "high polyreactivity"}
{"sequence": "QVQLVESGGGLVQAGGSLRLSCAASGITFAWYAMGWYRQAPGKERELVAAISRSGGSTYYADSVKGRFTISRDNAKNTVYLQMNSLKPEDTAVYYCADRASPRFNYWGQGTQVTVSS", "polyreactivity (PSR sort gate)": "high polyreactivity"}
{"sequence": "QVQLVESGGGLVQAGGSLRLSCAASGITFAYYVKGWYRQAPGKERQLVAAITRSGDITSYADSVKGRFTISRDNAKNTVYLQMNSLKPEDTAVYYCNARRGYQSRRYNYWGQGTQVTVSS", "polyreactivity (PSR sort gate)": "high polyreactivity"}
{"sequence": "QVQLVESGGGLVQAGGSLRLSCAASGITFDENTMGWYRQGPGKERELVAAITEIGGSTYYADSVKGRFTISRDNAKNTVYLQMHSLKPEDTAVYYCNAARWVGRFVDYEYWGQGTQVTVSS", "polyreactivity (PSR sort gate)": "low polyreactivity"}
{"sequence": "QVQLVESGGGLVQAGGSLRLSCAASGITFDGYAMGWDRQAPGKERELVAVISWSAGSTYADSVKGRFTISRDNAKNTVYLQMNSLKPEDTAVYYGNARTTYRSSRYRRYEYWGQGTQVTVSS", "polyreactivity (PSR sort gate)": "high polyreactivity"}
{"sequence": "QVQLVESGGGLVQAGGSLRLSCAASGITFDGYAMGWYRQAPGKERELVAAIRSSGGSTYYADSVKGRFTISRDNAKNTVYLQMNSLKPEDTAVYYCATDKVTVWGWKYDSWGQGTQVTVSS", "polyreactivity (PSR sort gate)": "low polyreactivity"}
{"sequence": "QVQLVESGGGLVQAGGSLRLSCAASGITFDGYGMGWYRQAPGKERQLVAAITYSGGRTYYADSVKGRFTISRDIEKNTVYLQMNSLKPEDTAVYYCAVVSRRLYEYDYWGQGTQVTVSS", "polyreactivity (PSR sort gate)": "high polyreactivity"}
{"sequence": "QVQLVESGGGLVQAGGSLRLSCAASGITFDHYAMGWYRQAPGKEREFVAAIDDIGGDTYYADSVKGRFTISRDNAKNTVYLQMNSLKPEETAVYYCATDYPWIFGHFLMDYWGQGTQVTVSS", "polyreactivity (PSR sort gate)": "low polyreactivity"}
{"sequence": "QVQLVESGGGLVQAGGSLRLSCAASGITFDLYAMGWYRQAPGKEREFVATISWTGGTTYYADSVKGRFTISRDNAKNTVYLQMNSLKPEDTAVYYCNKGSDFFWYDYDYWGQGTQVTVSS", "polyreactivity (PSR sort gate)": "low polyreactivity"}
{"sequence": "QVQLVESGGGLVQAGGSLRLSCAASGITFDLYDMGSYRQAPGKERELVAAITDADSTYYADSVKGRFTISRDNAKNTVLLQMNSLKPEDTAVYYCAATSYSHTKIRYDYWVQGTQVTVSS", "polyreactivity (PSR sort gate)": "low polyreactivity"}
{"sequence": "QVQLVESGGGLVQAGGSLRLSCAASGITFDQYVMGWYRQAPGKERELVAAIDRSDGITYYADSVKGRFTISRDNAKNSVYLQMNSLTPEDTAVYYCAAVTYTPVYGGYYWDGGYWGQGTQVTVSS", "polyreactivity (PSR sort gate)": "low polyreactivity"}
{"sequence": "QVQLVESGGGLVQAGGSLRLSCAASGITFDTYAMGWYRQAPGKERELVAAISSSGSTNYADSVKGRFTISRDNAKNTVYLQMNSLKPEDTAVYYCATDYWPGTGGNYDYWGQGTQVTVSS", "polyreactivity (PSR sort gate)": "low polyreactivity"}
{"sequence": "QVQLVESGGGLVQAGGSLRLSCAASGITFDVNAMGWYRPAPGKERELVAAITAGGNTYYADSVKGRFTISRDNAKNTVYLQMNSLKPEDTAVYYCAAVSTSLYWAGYDYWGQGTQVTVSS", "polyreactivity (PSR sort gate)": "low polyreactivity"}
{"sequence": "QVQLVESGGGLVQAGGSLRLSCAASGITFDWYTLGWYSQAPGKERELVAAISRNGGSTYYADSVKGRFTISRDNAKNTVYLQMNSLKPEDTAVYYCAAPLTYLYYGYDYWGQGTQVTVSS", "polyreactivity (PSR sort gate)": "high polyreactivity"}
{"sequence": "QVQLVESGGGLVQAGGSLRLSCAASGITFDYYAMGWYRQAPGKERELVADISSSGGSTYYADSVKGRFTISRDNAKNSVYLQMNSLKPEDTAVYYCAAVVTKYPTTGFGYWGQGTQVTVSS", "polyreactivity (PSR sort gate)": "high polyreactivity"}
{"sequence": "QVQLVESGGGLVQAGGSLRLSCAASGITFDYYAMGWYRQAPGKERELVASISSDSSTYYADSVKGRFTISRDNAKNTVYLQMNSLKPEDTAVYYCNAGDTTFPFYYWGQGTQVTVSS", "polyreactivity (PSR sort gate)": "low polyreactivity"}
{"sequence": "QVQLVESGGGLVQAGGSLRLSCAASGITFEDYAMGWYRQAPGKERELVAAISWSGDITYYADSVKGRFTISRDNAKNTVYLQMNSLKPEDTAVYYCAADLSPYGYDYWGQGTQVTVSS", "polyreactivity (PSR sort gate)": "low polyreactivity"}
{"sequence": "QVQLVESGGGLVQAGGSLRLSCAASGITFELNTMGWYRQAPGKEMELVAVITQNGGSTYYADSVKGRFTISRDNAKNTVYLQMNSLKPEDTAVYYCAATYVWSYLYLIRFYYWGQGTQVTVSS", "polyreactivity (PSR sort gate)": "high polyreactivity"}
{"sequence": "QVQLVESGGGLVQAGGSLRLSCAASGITFETYAMGWYRQAPGKERELVAAITYSGGRTYYADSVKGRFTISRDNAKNTVYLQMNSLKPEDTAVYYCNARKYVGFWSRYDYWGQGTQVTVSS", "polyreactivity (PSR sort gate)": "high polyreactivity"}
{"sequence": "QVQLVESGGGLVQAGGSLRLSCAASGITFEVNAMGWYRQAPGKERELVAAISRSAGSTYYADSVKGRFTISRDNAKNTVYLQMISLKPEDTAVYYCATALRYARSRNRFYYWGQGTQVSVSS", "polyreactivity (PSR sort gate)": "high polyreactivity"}
{"sequence": "QVQLVESGGGLVQAGGSLRLSCAASGITFEVYAMAWYRQAPATERELVAVITSVGSTNYADSVKGRFTISRDNAKNTVYLQMNSLKTEDNAVYYCAGEKWTVRRFNPYTYYRYDYWGQGTQVTVSS", "polyreactivity (PSR sort gate)": "low polyreactivity"}
{"sequence": "QVQLVESGGGLVQAGGSLRLSCAASGITFEVYDMGWYRQAPGKERELVAAITWSAGRTYYADSVKGRFTISRDNAKNTVYLQMNSLKPEDTAVYYCAAEVYYYYRTYSYIWNRVDYDYWGQGTQVTVSS", "polyreactivity (PSR sort gate)": "low polyreactivity"}
{"sequence": "QVQLVESGGGLVQAGGSLRLSCAASGITFEYYAMGWYRQAPGKERELVAAITWSGGITYYADSVKGRFTISRDNAKNTVYLQMNSLKPEDTAVYYCNVYVSAGEEDEYWGQGTQVTVSS", "polyreactivity (PSR sort gate)": "low polyreactivity"}
{"sequence": "QVQLVESGGGLVQAGGSLRLSCAASGITFFGKYAMGWYRQAPGKERELVAAISWSGGRTYYADSVKGRFTISRDNAKNTVYLQMNSLKPEDTAVYYCAVYPRDAERYGYWGQGTQVTVSS", "polyreactivity (PSR sort gate)": "high polyreactivity"}
{"sequence": "QVQLVESGGGLVQAGGSLRLSCAASGITFFGYAMGWYRQAPGKERELVAAISYSGGSTYYADSVKGRFTISRDNAKNTVYLQMNSLKPEDTAVYYCNARQAGTRYKYGYYGRYYWGQGTQVTVSS", "polyreactivity (PSR sort gate)": "high polyreactivity"}
{"sequence": "QVQLVESGGGLVQAGGSLRLSCAASGITFFLYAMGWYRQAPGKERELVAVISASGGSTYYADSVKGRFTISRDNAKNTVYLQMNSLKPDDTAVYYCNAYGAFIGYDSWGQGTQVTVSS", "polyreactivity (PSR sort gate)": "high polyreactivity"}
{"sequence": "QVQLVESGGGLVQAGGSLRLSCAASGITFFRNAMGWYRQAPGKERELVAAISRGGGSTYYADSVKGRFTISRDNAKNTVYLQMNSLKPEDTAVYYCAEYKYGTGVKMDYWGQGTQVTVSS", "polyreactivity (PSR sort gate)": "high polyreactivity"}
{"sequence": "QVQLVESGGGLVQAGGSLRLSCAASGITFFRYAMGWYRQAPGKEREFVAAISGRGGSTYYADSVKGRFTISRDNAKNTVYLQMNSLKPEDTAVYYCATRRSYLADYWGQGTQVTVSS", "polyreactivity (PSR sort gate)": "high polyreactivity"}
{"sequence": "QVQLVESGGGLVQAGGSLRLSCAASGITFFTYGLGWYRQAPGKERELVASINWSGGTYYADSVKGRFTISRDKAKNTVYLQMNSLKPEDTAVYYCAAETHVESGSRDFYTEDYWGQGTQVTVSS", "polyreactivity (PSR sort gate)": "low polyreactivity"}
{"sequence": "QVQLVESGGGLVQAGGSLRLSCAASGITFFWNAMGWYRQAPGKERELVAAISSGAGTTYADSVKGRFTISRDNAKNTVYLQMNSLKPEDTAVYYCAARRYRYAYGPYNYWGQGTQVTVSS", "polyreactivity (PSR sort gate)": "low polyreactivity"}
{"sequence": "QVQLVESGGGLVQAGGSLRLSCAASGITFGAYAMGWYRQAPGKERELVASISSSGSTYADSVKGRFTISRDNAKNTVYLQMNSLKPEDTGVYYCNAVGFQANDYNYWGQGTQVTVSS", "polyreactivity (PSR sort gate)": "low polyreactivity"}
